Residue numbers refer to the chain shown, from its start. Numbers in names are those of the source.
T1: Ser202-phosphorylated PhPINK1 (amino acids 115–575), monomeric (Pediculus humanus corporis, UniProt E0W1I1 115-575, phosphoserine at 202)
T1 construct: PINK1 of Pediculus humanus corporis, amino acids 115–575, wild type, autophosphorylated at Ser202 after dephosphorylation; For the analytical SEC the monomer fractions of the SEC run were pooled; also called phospho-PhPINK1; monomeric phosphorylated PhPINK1; not shown: GST, N-terminal, cleaved
T1 sequence (looked up): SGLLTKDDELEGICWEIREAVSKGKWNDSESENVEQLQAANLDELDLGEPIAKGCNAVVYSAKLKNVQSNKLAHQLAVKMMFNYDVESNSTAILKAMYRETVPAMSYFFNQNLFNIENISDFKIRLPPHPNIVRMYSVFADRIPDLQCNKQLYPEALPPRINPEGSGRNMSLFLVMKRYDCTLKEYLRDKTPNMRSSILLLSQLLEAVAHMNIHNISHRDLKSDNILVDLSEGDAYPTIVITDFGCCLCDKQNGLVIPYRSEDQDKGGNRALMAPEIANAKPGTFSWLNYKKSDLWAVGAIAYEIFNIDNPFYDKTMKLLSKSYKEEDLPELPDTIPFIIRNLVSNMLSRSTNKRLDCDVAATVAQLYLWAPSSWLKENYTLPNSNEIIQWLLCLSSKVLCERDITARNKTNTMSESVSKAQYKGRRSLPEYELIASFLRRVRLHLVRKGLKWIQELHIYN

B1: TcPINK1(T172C/D359A) (enzyme, Tribolium castaneum, UniProt D6WMX4 117-570, looked up)
chain: TGILTKEEELEGVCWEIREAISKIKWQYYDIDESRFESNPITLNDLSLGKPIAKGCNGVVYSAKVKDDETDDNKYPFALKMMFNYDIQSNSMEILKAMYRETVPARMYYSNHDLNNWEIELANRRKHLPPHPNIVAIFSVFTDLIQELEGSKDLYPAALPPRLHPEGEGRNMSLFLLMKRYDCNLQSFLSTAPSTRTSLLLLAQLLEGVAHMTAHGIAHRDLKSDNLLLDTSEPESPILVISAFGCCLADKTNGLSLPYTSYEMDKGGNTALMAPEIICQKPGTFSVLNYSKADLWAVGAIAYEIFNCHNPFYGPSRLKNFNYKEGDLPKLPDEVPTVIQALVANLLKRNPNKRLDPEVAANVCQLFLWAPSTWLKPGLKVPTSGEILQWLLSLTTKVLCEGKINNKSFGEKFTRNWRRTYPEYLLISSFLCRAKLANVRNALHWIQENLPELD
notes: PINK1 of Tribolium castaneum with T172C and D359A; also called TcPINK1 with an equivalent T172C mutation; source: E. coli Rosetta2 (DE3) pLacI, purified (Glutathione Sepharose, 3C cleavage, SEC); not shown: GST, N-terminal, cleaved
B2: PhPINK1(D334A) (amino acids 115–575), unphosphorylated (enzyme)
chain: T1 sequence (looked up) with D220A
notes: pOPINK vector, GST tag removed with 3C PreScission protease; also called unphosphorylated PhPINK1(D334A); monomeric PhPINK1(D334A); source: E. coli Rosetta2 (DE3) pLacI, purified (Glutathione Sepharose, 3C cleavage, SEC); not shown: GST, N-terminal, cleaved
B3: PhPINK1(D357A) (amino acids 115–575) (enzyme)
chain: T1 sequence (looked up) with D243A
notes: Forms a dodecamer (two rings of three dimers); also called oligomeric PhPINK1(D357A); PhPINK1(D357A) dodecamer; source: E. coli Rosetta2 (DE3) pLacI, purified (Glutathione Sepharose, 3C cleavage, Mono Q for EM, SEC); not shown: GST, N-terminal, cleaved
B4: PhPINK1 (amino acids 143–575) (domain or fragment, Pediculus humanus corporis, UniProt E0W1I1 143-575, looked up)
chain: SESENVEQLQAANLDELDLGEPIAKGCNAVVYSAKLKNVQSNKLAHQLAVKMMFNYDVESNSTAILKAMYRETVPAMSYFFNQNLFNIENISDFKIRLPPHPNIVRMYSVFADRIPDLQCNKQLYPEALPPRINPEGSGRNMSLFLVMKRYDCTLKEYLRDKTPNMRSSILLLSQLLEAVAHMNIHNISHRDLKSDNILVDLSEGDAYPTIVITDFGCCLCDKQNGLVIPYRSEDQDKGGNRALMAPEIANAKPGTFSWLNYKKSDLWAVGAIAYEIFNIDNPFYDKTMKLLSKSYKEEDLPELPDTIPFIIRNLVSNMLSRSTNKRLDCDVAATVAQLYLWAPSSWLKENYTLPNSNEIIQWLLCLSSKVLCERDITARNKTNTMSESVSKAQYKGRRSLPEYELIASFLRRVRLHLVRKGLKWIQELHIYN
notes: PINK1 of Pediculus humanus corporis, amino acids 143–575, lacking the N-helix; also called PhPINK1 without the N-helix; the shorter PhPINK1 construct

What was measured:
[1] = target: the molecule itself; test: cross-linking; in vitro disulphide linkage: 1.5 μM PhPINK1 or TcPINK1 with 2 mM H2O2 in 25 mM Tris (pH 7.4), 150 mM NaCl, 22 °C, time course; non-reducing gel, Coomassie
[2] = target: T1, Ser202-phosphorylated PhPINK1 (amino …); test: SEC + other: Phos-tag SDS–PAGE; Phos-tag analysis of the oligomer species from the analytical SEC of the mixed proteins; conditions: both partners purified
[3] = target: the molecule itself; test: SEC-MALS; Superdex 200 Increase 10/300 GL; 25 mM Tris (pH 8.5), 150 mM NaCl, 5% (v/v) glycerol, 2 mM TCEP; 100 µl of purified protein at 1 mg ml^−1, 0.5 ml min^−1

| Binder | stoichiometry N [3] | further results |
| --- | --- | --- |
| B1 | – | binding result [1]: binds |
| B2 | – | stoichiometry N [2]: 1 |
| B3 | 2 | – |
| B4 | 2 | – |
